According to publication PMC11111636 (EJNMMI Radiopharmacy and Chemistry, 2024):

What was measured:
[1] = system: H69-xenograft Balb/c nu/nu mice; assay: Ex vivo biodistribution in H69-tumor bearing mice; details: for Tumor uptake lower than the tumor uptake of [111In]In-DOTA-TATE: P < 0.05
Protocol: (§1) Six-week‐old female Balb/c nu/nu‐specific mice (Janvier Labs, Le Genest‐Saint‐Isle, France) were housed in individually ventilated cages (4 mice/cage). Upon arrival, mice were acclimated for one week, with access to food and water ad libitum. Mice were subcutaneously inoculated on the right shoulder with NCI-H69 cells (5 × 10^6 cells) suspended in 100 μL of 1/3 Matrigel (Corning Inc.; Corning, NY, USA) and 2/3 Hank’s balanced salt solution (Gibco; Paisley, UK). NCI-H69 xenografts were allowed to grow for 2 weeks.
(§2) At 3 selected time points (1, 4 and 24 h; n = 4) p.i., blood was collected via retro-orbital puncture under isoflurane/O2 anesthesia, after which the mice were sacrificed via cervical dislocation. The tumor and organs of interest (heart, lungs, liver, spleen, stomach, large intestine, small intestine, pancreas, kidneys, muscle, skin, bone) were excised, washed in PBS and blotted dry. […] To determine the total injected radioactivity per animal, a calibration curve with indium-111 was established using the gamma counter. The percentage of injected dose per gram (% ID/g) was determined for each tissue and corrected for both the injected activity and % ID present at the injection site (the tail). Then, the tumor and the organs were placed in a petri dish and ex vivo optical imaging was performed with the IVIS Spectrum system (Perkin Elmer, Waltham, MA, USA) using the following settings for all measurements: FOV 19.5 cm, medium binning, f2, 60 s exposure with an excitation/emission filter of 646 nm/662 nm. Living Image version 4.5.2 software (Perkin Elmer) was used to perform data analysis by drawing regions of interest around the organ/tissue to quantify the radiant efficiency {(photons/second/cm^2/steradian)/(μW/cm^2)}.

[2] = Ex vivo biodistribution in H69-tumor bearing mice; details: mouse, in vivo; for tissue uptake at 4 h / tissue uptake at 1 h / tissue uptake at 24 h: n = 4; for tissue uptake at 1 h: 1 h p.i.; for tissue uptake at 24 h: 24 h p.i.
Protocol: as §1, §2

U2OS.SSTR2 cells = assay: Uptake/internalization studies in U2OS.SSTR2 cells; type: cell-based, human
Protocol: Cells were seeded in 6-well plates 24 h before the experiment (7 × 10^5 cells/well). […] The membrane-bound fraction was collected by incubating cells with an acid buffer (50 mM glycine, 100 mM NaCl, pH 2.8) for 10 min at rt. The internalized fraction was determined by lysing the cells with 1 M NaOH for 5 min at rt. Both fractions were measured in a gamma counter, and data were analyzed in GraphPad Prism v9 and expressed as percentage of added dose.

[3] = In vitro stability in PBS (radio-HPLC); type: physicochemical; details: 37 °C; for PBS (%) intact labeled ligand: n = 1
in vitro = details: mouse, mouse serum, Mouse serum (%) intact labeled ligand, 37 °C, n = 1
Protocol: Stability of the radiolabeled peptide was monitored at 1, 4 and 24 h post incubation. The samples in PBS were directly analyzed by radio-HPLC without any pretreatment. However, samples in mouse serum were mixed with an equal volume of acetonitrile to precipitate the proteins. The solution was centrifuged for 10 min at 13,000 rpm and the supernatant was analyzed by radio-HPLC.

[4] = Protocol: Distribution coefficient was determined by a shake-flask method. […] The vial was vortexed vigorously and then centrifuged at 10,000 rpm for 10 min for phase separation. Samples (100 μL) of the n-octanol and aqueous phases were taken and measured in the gamma counter. LogD7.4 value was calculated by using the following equation: LogD7.4 = log [(counts in n-octanol phase)/(counts in aqueous phase)]. Measurements were performed in triplicates.
[5] = iv, 2 nmol, Uptake in Intestines

With `C[C@@H](O)[C@H](NC(=O)[C@@H]1CSSC[C@H](NC(=O)[C@@H](Cc2ccccc2)NC(=O)CCC(C(=O)O)N2CCN(CC(=O)O)CCN(Cc3cccc(COCCCn4nnc5c4-c4ccccc4N(C(=O)CCCCCNC(=O)CCCCC[N+]4=C(C=CC=CC=C6N(C)c7ccc(S(=O)(=O)[O-])cc7C6(C)C)C(C)(C)c6cc(S(=O)(=O)O)ccc64)Cc4ccccc4-5)n3)CCN(CC(=O)O)CC2)C(=O)N[C@@H](Cc2ccc(O)cc2)C(=O)N[C@H](Cc2c[nH]c3ccccc23)C(=O)N[C@@H](CCCCN)C(=O)N[C@@H]([C@@H](C)O)C(=O)N1)C(=O)O` (some centres unmarked) [[^111In]In-eTFC-01, metal not drawn] the “Tumor uptake lower than the tumor uptake of [111In]In-DOTA-TATE” value ([1]; 1 h p.i.) was 54%, the “Tumor uptake reduction by co-injection of an excess of DOTA-TATE” value ([1]; 4 h p.i., compared to the unblocked group) was 40% and the “Tumor uptake lower than the tumor uptake of [111In]In-DOTA-TATE” value ([1]; 24 h p.i.) was 31%. The tissue uptake ([2]; 2 nmol, Tumor uptake, from 1 h to 24 h post injection) was 2 to 3 %ID/g, the tissue uptake at 4 h ([2]; Uptake in Blood, 4 h block (co-injected 50 nmol DOTA-TATE)) was 4.11 ± 0.16 %ID/g and the tissue uptake at 4 h ([2]; Uptake in Bones, 4 h block (co-injected 50 nmol DOTA-TATE)) was 1.53 ± 0.27 %ID/g. It also gave a tissue uptake at 4 h ([2]; Uptake in Heart, 4 h block (co-injected 50 nmol DOTA-TATE)) of 2.14 ± 0.46 %ID/g, a tissue uptake at 4 h ([2]; Uptake in Intestines, 4 h block (co-injected 50 nmol DOTA-TATE)) of 1.48 ± 0.13 %ID/g and a tissue uptake at 4 h ([2]; Uptake in Kidneys, 4 h block (co-injected 50 nmol DOTA-TATE)) of 46.6 ± 6.34 %ID/g. The tissue uptake at 4 h ([2]; Uptake in Liver, 4 h block (co-injected 50 nmol DOTA-TATE)) was 10.6 ± 1.55 %ID/g, the tissue uptake at 4 h ([2]; Uptake in Lungs, 4 h block (co-injected 50 nmol DOTA-TATE)) was 6.05 ± 0.59 %ID/g and the tissue uptake at 4 h ([2]; Uptake in Muscle, 4 h block (co-injected 50 nmol DOTA-TATE)) was 0.67 ± 0.08 %ID/g. For the same compound, the tissue uptake at 4 h ([2]; Uptake in Pancreas, 4 h block (co-injected 50 nmol DOTA-TATE)) was 0.95 ± 0.23 %ID/g, the tissue uptake at 4 h ([2]; Uptake in Skin, 4 h block (co-injected 50 nmol DOTA-TATE)) was 3.61 ± 0.4 %ID/g and the tissue uptake at 4 h ([2]; Uptake in Spleen, 4 h block (co-injected 50 nmol DOTA-TATE)) was 3.97 ± 0.9 %ID/g. It also gave a tissue uptake at 4 h ([2]; Uptake in Stomach, 4 h block (co-injected 50 nmol DOTA-TATE)) of 0.43 ± 0.12 %ID/g, a tissue uptake at 4 h ([2]; Uptake in Tumor, 4 h block (co-injected 50 nmol DOTA-TATE)) of 1.81 ± 0.14 %ID/g and a tissue uptake at 1 h ([2]; iv, 2 nmol, Uptake in Blood) of 6.96 ± 0.68 %ID/g. It also gave a tissue uptake at 4 h ([2]; iv, 2 nmol, Uptake in Blood, 4 h p.i.) of 4.7 ± 0.24 %ID/g, a tissue uptake at 24 h ([2]; iv, 2 nmol, Uptake in Blood) of 0.64 ± 0.11 %ID/g and a tissue uptake at 1 h ([2]; iv, 2 nmol, Uptake in Bones) of 2.29 ± 0.17 %ID/g. The tissue uptake at 4 h ([2]; iv, 2 nmol, Uptake in Bones, 4 h p.i.) was 1.7 ± 0.23 %ID/g, the tissue uptake at 24 h ([2]; iv, 2 nmol, Uptake in Bones) was 0.98 ± 0.21 %ID/g and the tissue uptake at 1 h ([2]; iv, 2 nmol, Uptake in Heart) was 4.14 ± 0.76 %ID/g. The tissue uptake at 4 h ([2]; iv, 2 nmol, Uptake in Heart, 4 h p.i.) was 2.5 ± 0.17 %ID/g, the tissue uptake at 24 h ([2]; iv, 2 nmol, Uptake in Heart) was 0.74 ± 0.12 %ID/g and the tissue uptake at 1 h [2, 5] was 1.85 ± 0.24 %ID/g. It also gave a tissue uptake at 4 h ([2]; iv, 2 nmol, Uptake in Intestines, 4 h p.i.) of 1.85 ± 0.24 %ID/g, a tissue uptake at 24 h [2, 5] of 0.44 ± 0.09 %ID/g and a tissue uptake at 1 h ([2]; iv, 2 nmol, Uptake in Kidneys) of 33.2 ± 3.27 %ID/g. It also gave a tissue uptake at 4 h ([2]; iv, 2 nmol, Uptake in Kidneys, 4 h p.i.) of 36.6 ± 2.02 %ID/g, a tissue uptake at 24 h ([2]; iv, 2 nmol, Uptake in Kidneys) of 30.6 ± 5.9 %ID/g and a tissue uptake at 1 h ([2]; iv, 2 nmol, Uptake in Liver) of 8.88 ± 0.9 %ID/g. The tissue uptake at 24 h ([2]; iv, 2 nmol, Uptake in Liver) was 6.03 ± 1.14 %ID/g, the tissue uptake at 1 h ([2]; iv, 2 nmol, Uptake in Lungs) was 8.07 ± 1.18 %ID/g and the tissue uptake at 4 h ([2]; iv, 2 nmol, Uptake in Lungs, 4 h p.i.) was 7.71 ± 0.87 %ID/g. For the same compound, the tissue uptake at 24 h ([2]; iv, 2 nmol, Uptake in Lungs) was 1.75 ± 0.19 %ID/g, the tissue uptake at 1 h ([2]; iv, 2 nmol, Uptake in Muscle) was 1.07 ± 0.1 %ID/g and the tissue uptake at 4 h ([2]; iv, 2 nmol, Uptake in Muscle, 4 h p.i.) was 0.73 ± 0.08 %ID/g. For the same compound, the tissue uptake at 24 h ([2]; iv, 2 nmol, Uptake in Muscle) was 0.26 ± 0.05 %ID/g, the tissue uptake at 1 h ([2]; iv, 2 nmol, Uptake in Pancreas) was 1.99 ± 0.26 %ID/g and the tissue uptake at 4 h ([2]; iv, 2 nmol, Uptake in Pancreas, 4 h p.i.) was 1.28 ± 0.17 %ID/g. The tissue uptake at 24 h ([2]; iv, 2 nmol, Uptake in Pancreas) was 0.64 ± 0.18 %ID/g, the tissue uptake at 1 h ([2]; iv, 2 nmol, Uptake in Skin) was 5.73 ± 1.28 %ID/g and the tissue uptake at 4 h ([2]; iv, 2 nmol, Uptake in Skin, 4 h p.i.) was 3.78 ± 0.35 %ID/g. For the same compound, the tissue uptake at 24 h ([2]; iv, 2 nmol, Uptake in Skin) was 1.54 ± 0.35 %ID/g, the tissue uptake at 1 h ([2]; iv, 2 nmol, Uptake in Spleen) was 5.09 ± 0.72 %ID/g and the tissue uptake at 4 h ([2]; iv, 2 nmol, Uptake in Spleen, 4 h p.i.) was 3.58 ± 1.02 %ID/g. It also gave a tissue uptake at 24 h ([2]; iv, 2 nmol, Uptake in Spleen) of 2.03 ± 0.43 %ID/g, a tissue uptake at 1 h ([2]; iv, 2 nmol, Uptake in Stomach) of 2.66 ± 0.49 %ID/g and a tissue uptake at 4 h ([2]; iv, 2 nmol, Uptake in Stomach, 4 h p.i.) of 1.41 ± 0.19 %ID/g. For the same compound, the tissue uptake at 24 h ([2]; iv, 2 nmol, Uptake in Stomach) was 0.77 ± 0.22 %ID/g, the tissue uptake at 1 h ([2]; iv, 2 nmol, Uptake in Tumor) was 2.56 ± 0.38 %ID/g and the tissue uptake at 4 h ([2]; iv, 2 nmol, Uptake in Tumor, 4 h p.i.) was 3.04 ± 0.49 %ID/g. For the same compound, the tissue uptake at 24 h ([2]; iv, 2 nmol, Uptake in Tumor) was 2.21 ± 0.31 %ID/g, the “Internalized fraction of radioactivity” value (U2OS.SSTR2 cells; 10^-9 M, 90 min, 37 °C) was 97% and the Total uptake (U2OS.SSTR2 cells; 10^-9 M, 90 min, 37 °C, % of added dose per 1,000,000 cells, n = 3) was 20.87 ± 1.92 % AD. The “Cell uptake with excess of unlabeled DOTA-TATE” value (U2OS.SSTR2 cells; 50-fold excess DOTA-TATE) was “almost completely blocked”, the “Drop of the cell uptake in presence of an excess of DOTA-TATE” value (U2OS.SSTR2 cells; 50-fold excess DOTA-TATE) was 95% and the “Degradation in PBS buffer” value ([3]; up to 24 h) was “No degradation”. The “PBS (%) intact labeled ligand” value ([3]; 1 h) was 99.0%, the “PBS (%) intact labeled ligand” value ([3]; 4 h) was 99.0% and the “PBS (%) intact labeled ligand” value ([3]; 24 h) was 99.0%. It also gave a remaining at 1 h (in vitro; 1 h) of 97.9%, a remaining at 4 h (in vitro; 4 h) of 86% and a remaining at 24 h (in vitro; 24 h) of 71%. The LogD7.4 ([4]; n-octanol/PBS pH 7.4, n = 3) was “negative” and the logD ([4]; pH 7.4) was -0.7 ± 0.06.
